Measured values: patent US20230203202A1

Columns and labels:
[1] = target: poly-specificity reagent (PSR); assay: flow cytometry PSR assay on protein A beads; same quadrant without PSR: 9.17E-3
[2] = target: poly-specificity reagent (PSR); assay: flow cytometry PSR assay on protein A beads; same quadrant without PSR: 0.046
[3] = target: poly-specificity reagent (PSR); assay: flow cytometry PSR assay on protein A beads; same quadrant without PSR: 0.025
[4] = target: poly-specificity reagent (PSR); assay: flow cytometry PSR assay on protein A beads; same quadrant without PSR: 0

Row | Q3 (Expression-FITC low, Binding-PE high), + PSR [1] | Q2 (Expression-FITC high, Binding-PE high), + PSR [2] | Q2 (Expression-FITC high, Binding-PE high), + PSR [3] | Q3 (Expression-FITC low, Binding-PE high), + PSR [4] | Substance
1 | 0.82 | 69.8 |  |  | Rituximab (antibody)
2 |  |  | 0.37 | 0.049 | Trastuzumab (antibody)
